US20160158369A1, “PHARMACEUTICAL COMPOSITION FOR RESPIRATORY ADMINISTRATION” (SEIKAGAKU CORPORATION, priority 2013, published 2016)

Test: Drug dissociation test: polysaccharide derivative in buffer solution, 36°C, 1 week, HPLC
Assay type: physicochemical
Method: In the examples relating to drug dissociation test, the drug dissociation ratio was evaluated as described below.
Sodium dihydrogen phosphate dihydrate (780 mg (5.0 mmol)) was dissolved in 500 mL of distilled water to give a liquid A. Separately, disodium hydrogen phosphate dodecahydrate (1.79 g (5.0 mmol)) was dissolved in 500 mL of distilled water to give a liquid B. By mixing the liquid A and liquid B at ratio of 2:3, a phosphate buffer solution of pH 7.5 was prepared.
0.62 g (10 mmol) of boric acid and 0.75 g (10 mmol) of potassium chloride were weighed and dissolved in 500 mL of distilled water to give a liquid C. Separately, by diluting 0.1 N sodium hydroxide solution with distilled water (×10 dilution), a liquid D was prepared.
50 mL of the liquid C and 7 mL of the liquid D were added to a 100 mL mess flask, and according to dilution to 100 mL with distilled water, a borate buffer solution of pH 8.0 was prepared. Furthermore, 50 mL of the liquid C and 40 mL of the liquid D were added to a 100 mL mess flask, and according to mess-up to 100 mL with distilled water, a borate buffer solution of pH 9.0 was prepared.
Each polysaccharide derivative obtained from above was dissolved in a buffer solution at each pH so as to have a concentration of 5 mg/10 mL, and heated for 1 week in an incubator at 36° C. Then, the drug dissociation ratio during the incubation was evaluated every 24 hours by liquid chromatography (HPLC).
The evaluation was performed by measuring the ratio between the drug amount remained in a polysaccharide derivative and the dissociated drug amount according to use of a size exclusion chromatography column (manufactured by TOSOH, TSKgel α-6000, 7.8 mmI.D.×30 cm).
Detailed conditions for the liquid chromatography are as follows.
Analysis time: 40 minutes
Solution for elution: acetonitrile (for HPLC):physiological saline=1:2
Detector: UV detector (240 nm)

Substance	Dissociation ratio (%/day) (pH 7.4, 36°C)	drug dissociation ratio (pH 7.4, 36°C, day 0) [%]	drug dissociation ratio (pH 7.4, 36°C, day 1) [%]	drug dissociation ratio (pH 7.4, 36°C, day 2) [%]	drug dissociation ratio (pH 7.4, 36°C, day 3) [%]	drug dissociation ratio (pH 7.4, 36°C, day 4) [%]	drug dissociation ratio (pH 7.4, 36°C, day 5) [%]	drug dissociation ratio (pH 7.4, 36°C, day 6) [%]	drug dissociation ratio (pH 7.4, 36°C, day 7) [%]	Dissociation ratio (%/day) (pH 8.0, 36°C)	drug dissociation ratio (pH 8.0, 36°C, day 0) [%]	drug dissociation ratio (pH 8.0, 36°C, day 1) [%]	drug dissociation ratio (pH 8.0, 36°C, day 2) [%]	drug dissociation ratio (pH 8.0, 36°C, day 3) [%]	drug dissociation ratio (pH 8.0, 36°C, day 4) [%]	drug dissociation ratio (pH 8.0, 36°C, day 5) [%]	drug dissociation ratio (pH 8.0, 36°C, day 6) [%]	drug dissociation ratio (pH 8.0, 36°C, day 7) [%]	further results
Hyaluronic Acid Introduced with 21-β-Alanyl-Budesonide (880 kDa) [Compound via]	4.9	2.0	9.6	16.8	18.3	21.7	23.9	30.9	34.3	8.2	0.9	15.0	20.4	26.4	39.9	46.2	52.6	57.1	
Chondroitin Sulfate Introduced with 11-Glycyl-Propionic Acid Fluticasone [Compound xvii]																			Dissociation ratio (%/day) (pH 7.4, phosphate buffer solution/acetonitrile (1:1), 36°C): 0.4 %/day; drug dissociation ratio (pH 7.4, phosphate buffer solution/acetonitrile (1:1), 36°C, day 0): 0.0%; drug dissociation ratio (pH 7.4, phosphate buffer solution/acetonitrile (1:1), 36°C, day 1): 0.3%; drug dissociation ratio (pH 7.4, phosphate buffer solution/acetonitrile (1:1), 36°C, day 2): 0.7%; drug dissociation ratio (pH 7.4, phosphate buffer solution/acetonitrile (1:1), 36°C, day 3): 1.3%; drug dissociation ratio (pH 7.4, phosphate buffer solution/acetonitrile (1:1), 36°C, day 4): 1.9%; drug dissociation ratio (pH 7.4, phosphate buffer solution/acetonitrile (1:1), 36°C, day 5): 2.3%; drug dissociation ratio (pH 7.4, phosphate buffer solution/acetonitrile (1:1), 36°C, day 6): 2.5%; drug dissociation ratio (pH 7.4, phosphate buffer solution/acetonitrile (1:1), 36°C, day 7): 2.9%; Dissociation ratio (%/day) (pH 8.0, borate buffer solution/acetonitrile (1:1), 36°C): 3.3 %/day; drug dissociation ratio (pH 8.0, borate buffer solution/acetonitrile (1:1), 36°C, day 0): 0.0%; drug dissociation ratio (pH 8.0, borate buffer solution/acetonitrile (1:1), 36°C, day 1): 4.6%; drug dissociation ratio (pH 8.0, borate buffer solution/acetonitrile (1:1), 36°C, day 2): 10.1%; drug dissociation ratio (pH 8.0, borate buffer solution/acetonitrile (1:1), 36°C, day 3): 14.1%; drug dissociation ratio (pH 8.0, borate buffer solution/acetonitrile (1:1), 36°C, day 4): 17.8%; drug dissociation ratio (pH 8.0, borate buffer solution/acetonitrile (1:1), 36°C, day 5): 18.9%; drug dissociation ratio (pH 8.0, borate buffer solution/acetonitrile (1:1), 36°C, day 6): 20.0%; drug dissociation ratio (pH 8.0, borate buffer solution/acetonitrile (1:1), 36°C, day 7): 22.8%
Hyaluronic Acid Introduced with 21-β-Alanyl-Budesonide (390 kDa) [Compound vib]	4.9	3.3	9.3	16.3	18.4	22.3	25.2	30.7	34.6	7.9	0.4	12.8	16.1	23.2	36.7	44.1	50.2	55.3	
Chondroitin Sulfate Introduced with 21-β-Alanyl-Budesonide (20 kDa) [Compound vb]	0.9	0.3	1.2	2.4	3.0	3.6	4.0	5.1	6.4	1.5	0.2	1.2	1.7	2.9	5.5	7.6	8.9	10.8	
Chondroitin Sulfate Introduced with Seratrodast [Compound xxiii]	0.1	0.0	0.0	0.2	0.3	0.3	0.4	0.5	0.6	0.2	0.0	0.2	0.4	0.6	0.7	0.9	1.1	1.3	
Hyaluronic Acid Introduced with Proxyphylline [xxiib]	0.8	0.0	0.7	1.3	2.2	2.8	3.6	4.4	5.3	2.0	0.0	2.1	4.6	7.0	8.8	10.4	12.6	14.3	
Chondroitin Sulfate Introduced with 11-β-Alanyl-Propionic Acid Fluticasone [Compound vii]	0.1	0.0	0.0	0.0	0.2	0.4	0.4	0.4	0.4	0.2	0.0	0.3	0.6	0.7	0.7	1.0	1.0	1.1	
Chondroitin Sulfate Introduced with 11-(2-Fluoro-β-Alanyl)-Propionic Acid Fluticasone [Compound viii]	3.1	0.1	7.9	4.9	12.7	8.4	15.2	14.3	21.8	10.1	0.3	14.8	26.3	27.1	29.8	64.5	47.4	70.9	
Chondroitin Sulfate Introduced with 21-β-Alanyl-Budesonide (10 kDa) [Compound vc]	1.2	0.4	1.6	2.8	3.7	4.8	5.3	6.8	8.5	2.0	0.1	1.9	2.4	3.9	7.6	9.7	11.2	14.0	
